Test results: US20210230570
Changes are numbered by the printed parent chain. Numbers in names are those of the source.

B1: FIXa-Y155F/K247N/N249S/R318Y/R338E/R403E (protein)
chain 1: YNSGKLEEFVQGNLERECMEEKCSFEEAREVFENTERTTEFWKQYVDGDQCESNPCLNGGSCKDDINSYECWCPFGFEGKNCELDVTCNIKNGRCEQFCKNSADNKVVCSCTEGYRLAENQKSCEPAVPFPCGRVSVSQTSKLTR
chain 2: VVGGEDAKPGQFPWQVVLNGKVDAFCGGSIVNEKWIVTAAHCVETGVKITVVAGEHNIEETEHTEQNRSVIRIIPHHNYNAAINKYNHDIALLELDEPLVLNSYVTPICIADKEYTNIFLKFGSGYVSGWGRVFHKGYSALVLQYLRVPLVDRATCLESTKFTIYNNMFCAGFHEGGRDSCQGDSGGPHVTEVEGTSFLTGIISWGEECAMKGKYGIYTKVSEYVNWIKEKTKLT
B2: FIXa-K247N/N249S/R318Y/R338E/R403E (protein)
chain 1: B1 chain 1
chain 2: B1 chain 2
B3: FIXa-Y155F/K247N/N249S/R318Y/R403E/E410N (protein)
chain 1: B1 chain 1
chain 2: B1 chain 2 with E158R, E230N
B4: FIXa-K247N/N249S/R318Y/R403E/E410N (protein)
chain 1: B1 chain 1
chain 2: B1 chain 2 with E158R, E230N
B5: FIXa-R338E/R403E/E410N (protein)
chain 1: B1 chain 1
chain 2: B1 chain 2 with N67K, S69N, Y138R, E230N
B6: FIXa-R318Y/R338E/R403E (protein)
chain 1: B1 chain 1
chain 2: B1 chain 2 with N67K, S69N
B7: FIXa-D203N/F205T/K228N (protein)
chain 1: B1 chain 1
chain 2: B1 chain 2 with D23N, F25T, K48N, N67K, S69N, Y138R, E158R, E223R
B8: FIXa-D203N/F205T/E410N (protein)
chain 1: B1 chain 1
chain 2: B1 chain 2 with D23N, F25T, N67K, S69N, Y138R, E158R, E223R, E230N
B9: FIXa-D203N/F205T/R338E (protein)
chain 1: B1 chain 1
chain 2: B1 chain 2 with D23N, F25T, N67K, S69N, Y138R, E223R
B10: FIXa-D203N/F205T/R338A (protein)
chain 1: B1 chain 1
chain 2: B1 chain 2 with D23N, F25T, N67K, S69N, Y138R, E158A, E223R
B11: FIXa-D203N/F205T/R318Y (protein)
chain 1: B1 chain 1
chain 2: B1 chain 2 with D23N, F25T, N67K, S69N, E158R, E223R
B12: FIXa-D203N/F205T/R338E/R403E (protein)
chain 1: B1 chain 1
chain 2: B1 chain 2 with D23N, F25T, N67K, S69N, Y138R
B13: FIXa-K228N/R338E/R403E (protein)
chain 1: B1 chain 1
chain 2: B1 chain 2 with K48N, N67K, S69N, Y138R
B14: FIXa-D104N/K106S/R318Y/R338E/E410N (protein)
chain 1: B1 chain 1 with D104N, K106S
chain 2: B1 chain 2 with N67K, S69N, E223R, E230N
B15: FIXa-Y155F/R318Y/R338E/E410N (protein)
chain 1: B1 chain 1
chain 2: B1 chain 2 with N67K, S69N, E223R, E230N
B16: FIXa-K228N/R318Y/E410N (protein)
chain 1: B1 chain 1
chain 2: B1 chain 2 with K48N, N67K, S69N, E158R, E223R, E230N
B17: FIXa-A103N/N105S/R318Y/R338E/R403E/E410N (protein)
chain 1: B1 chain 1 with A103N, N105S
chain 2: B1 chain 2 with N67K, S69N, E230N
B18: FIXa-D104N/K106S/R318Y/R338E/R403E/E410N (protein)
chain 1: B1 chain 1 with D104N, K106S
chain 2: B1 chain 2 with N67K, S69N, E230N
B19: FIXa-Y155F/R318Y/R338E/R403E/E410N (protein)
chain 1: B1 chain 1
chain 2: B1 chain 2 with N67K, S69N, E230N
B20: FIXa-A103N/N105S/Y155F/R318Y/R338E/R403E/E410N (protein)
chain 1: B1 chain 1 with A103N, N105S
chain 2: B1 chain 2 with N67K, S69N, E230N
B21: FIXa-D104N/K106S/Y155F/R318Y/R338E/R403E/E410N (protein)
chain 1: B1 chain 1 with D104N, K106S
chain 2: B1 chain 2 with N67K, S69N, E230N
B22: FIXa-D203N/F205T/R318Y/E410N (protein)
chain 1: B1 chain 1
chain 2: B1 chain 2 with D23N, F25T, N67K, S69N, E158R, E223R, E230N
B23: FIXa variant A103N/N105S/Y155F/R318Y/R338E/R403E/E410N (mature FIX numbering) (protein)
chain 1: B1 chain 1 with A103N, N105S
chain 2: B1 chain 2 with N67K, S69N, E230N
B24: FIXa variant D104N/K106S/Y155F/R318Y/R338E/R403E/E410N (mature FIX numbering) (protein)
chain 1: B1 chain 1 with D104N, K106S
chain 2: B1 chain 2 with N67K, S69N, E230N
B25: FIXa variant D203N/F205T/R318Y/E410N (mature FIX numbering) (protein)
chain 1: B1 chain 1
chain 2: B1 chain 2 with D23N, F25T, N67K, S69N, E158R, E223R, E230N
B26: FIXa-Y155F/R318Y/R403E/E410N (protein)
chain 1: B1 chain 1
chain 2: B1 chain 2 with N67K, S69N, E158R, E230N
B27: FIXa-D104N/K106S/Y155F/K247N/N249S/R318Y/R338E/R403E/E410N (protein)
chain 1: B1 chain 1 with D104N, K106S
chain 2: B1 chain 2 with E230N
B28: FIXa K293E/R338E/R403E (protein)
chain 1: B1 chain 1
chain 2: B1 chain 2 with N67K, S69N, K113E, Y138R
B29: FIXa R318Y/R338E/R403E (protein)
chain 1: B1 chain 1
chain 2: B1 chain 2 with N67K, S69N
B30: FIXa R318Y/R338E/E410N (protein)
chain 1: B1 chain 1
chain 2: B1 chain 2 with N67K, S69N, E223R, E230N
B31: FIXa R318Y/R338E/R403E/E410N (protein)
chain 1: B1 chain 1
chain 2: B1 chain 2 with N67K, S69N, E230N
B32: FIXa-Y155F/R338E/R403E/E410N (protein)
chain 1: B1 chain 1
chain 2: B1 chain 2 with N67K, S69N, Y138R, E158R, R178E, E230N
B33: FIXa-Y155F/R318Y/R338E/R403E (protein)
chain 1: B1 chain 1
chain 2: B1 chain 2 with N67K, S69N

The proteins below were run against Factor X (FX), P00742.
Factor X (FX), P00742, sequence (P00742 whole entry, looked up): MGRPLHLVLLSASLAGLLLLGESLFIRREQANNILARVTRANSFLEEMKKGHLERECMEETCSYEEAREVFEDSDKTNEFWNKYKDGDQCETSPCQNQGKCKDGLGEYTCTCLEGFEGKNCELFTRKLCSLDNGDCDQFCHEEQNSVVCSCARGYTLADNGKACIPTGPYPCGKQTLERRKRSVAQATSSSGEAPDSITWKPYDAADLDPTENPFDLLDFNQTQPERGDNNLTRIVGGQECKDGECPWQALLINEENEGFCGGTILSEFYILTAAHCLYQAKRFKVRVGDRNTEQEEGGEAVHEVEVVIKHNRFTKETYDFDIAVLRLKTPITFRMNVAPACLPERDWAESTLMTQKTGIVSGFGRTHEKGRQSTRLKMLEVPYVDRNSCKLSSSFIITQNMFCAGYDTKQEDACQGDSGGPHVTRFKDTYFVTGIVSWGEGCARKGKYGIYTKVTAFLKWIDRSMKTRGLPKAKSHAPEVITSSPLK

| Protein | KM [µM] | kcat of FX activation by FIXa in the Xase complex (FVIIIa, PC/PS vesicles, Ca2+) [s⁻¹] | kcat/KM for FX activation (Xase assay with FVIIIa, PC/PS vesicles, Ca2+) [M⁻¹ s⁻¹] | kcat/KM (M^-1s^-1), FX activation by FIXa in the Xase complex [M⁻¹ s⁻¹] | KM of FX activation by FIXa in the Xase complex (FVIIIa, PC/PS vesicles, Ca2+) [µM] | kcat/KM [M⁻¹ s⁻¹] |
| --- | --- | --- | --- | --- | --- | --- |
| B1 | 0.0673 | 5.7 |  |  |  |  |
| B2 | 0.0536 | 10.5 |  |  |  |  |
| B3 | 0.125 | 1.2 |  |  |  |  |
| B4 | 0.111 | 2.9 |  |  |  |  |
| B5 |  |  | 7.8e+07 |  |  |  |
| B6 |  |  | 6.5e+07 |  |  |  |
| B7 |  |  | 1.4e+07 |  |  |  |
| B8 |  |  | 4.2e+07 |  |  |  |
| B9 |  |  | 1e+08 |  |  |  |
| B10 |  |  | 6.2e+07 |  |  |  |
| B11 |  |  | 2e+07 |  |  |  |
| B12 |  |  | 1.9e+07 |  |  |  |
| B13 |  |  | 4.8e+07 |  |  |  |
| B14 |  |  |  | 2.6e+08 |  |  |
| B15 |  |  |  | 3.7e+08 |  |  |
| B16 |  |  |  | 1.2e+08 |  |  |
| B17 |  |  |  | 1.5e+08 |  |  |
| B18 |  |  |  | 1.7e+08 |  |  |
| B19 |  |  |  | 1.9e+08 |  |  |
| B20 |  |  |  | 1.3e+08 |  |  |
| B21 |  |  |  | 1.8e+08 |  |  |
| B22 |  |  |  | 3.9e+07 |  |  |
| B23 |  |  |  |  | 0.0507 |  |
| B24 |  |  |  |  | 0.048 |  |
| B25 |  |  |  |  | 0.0457 |  |
| B26 |  |  |  | 3.6e+07 |  |  |
| B27 |  |  |  |  |  | 1.3e+08 |

Each protein was assayed against Factor X, P00742.
Factor X, P00742, sequence (P00742 whole entry, looked up): as above

| Protein | kcat [s⁻¹] | kcat/KM [M⁻¹ s⁻¹] | % of WT (kcat/KM) [%] | KM (Catalytic activity of FIXa variants) [µM] |
| --- | --- | --- | --- | --- |
| B28 | 0.8 |  |  |  |
| B29 | 3.5 |  |  |  |
| B30 | 4.6 |  |  |  |
| B31 | 5 |  |  |  |
| B1 |  | 9.5e+07 |  |  |
| B2 |  | 2.3e+08 |  |  |
| B3 |  | 1e+07 |  |  |
| B4 |  | 2.7e+07 |  |  |
| B5 |  | 1.9e+08 | 411 | 0.0455 |
| B6 |  | 6.2e+07 | 134 | 0.0537 |
| B7 |  | 1.4e+07 | 30 | 0.0399 |
| B8 |  | 4.2e+07 | 91 | 0.0455 |
| B9 |  | 1e+08 | 228 | 0.0241 |
| B10 |  | 6.2e+07 | 135 | 0.0385 |
| B11 |  | 2e+07 | 44 | 0.0475 |
| B12 |  | 1.9e+07 | 41 | 0.0511 |
| B13 |  |  | 105 | 0.0592 |
| B14 |  |  |  | 0.0189 |
| B15 |  |  |  | 0.016 |
| B16 |  |  |  | 0.042 |
| B17 |  |  |  | 0.0447 |
| B18 |  |  |  | 0.0385 |
| B19 |  |  |  | 0.0304 |
| B20 |  |  |  | 0.0507 |
| B21 |  |  |  | 0.048 |
| B22 |  |  |  | 0.0457 |
| B32 |  | 1.8e+08 | 401 |  |
| B33 |  | 8.7e+07 | 189 |  |

What follows are proteins tested against antithrombin III (plasma purified human AT-III), in complex with unfractionated heparin.

| Protein | K0.5 [nM] | K0.5-mut/K0.5-wt |
| --- | --- | --- |
| B5 | 2350 | 122 |
| B6 | > 10000 | > 517 |
| B7 | 822 | 42.5 |
| B8 | 377 | 19.5 |
| B9 | 1170 | 60.5 |
| B10 | 423 | 21.9 |
| B11 | 7230 | 374 |
| B12 | 1520 | 78.6 |
| B13 | 1680 | 86.8 |
| B14 | 6330 | 327 |
| B15 | 1100 | 56.8 |
| B16 | 475 | 24.6 |
